Measurements: the nanobody polyreactivity screen of Harvey et al. (2022)

Experiment: yeast display, Sf9 membrane polyspecificity reagent, FACS + sequencing; frameworks hold sequencing errors
Procedure, shortened: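 A nanobody's polyreactivity label depends on the gate it was sorted from. Yeast display cells were stained with 10% biotinylated, detergent-solubilized Sf9 membrane reagent for 1 hour at 4 °C, enriched on streptavidin microbeads and sorted by FACS. The low and high (top ~1%) gates were set on anti-HA fluorescence for expression and streptavidin fluorescence for reagent binding.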

Sequence	polyreactivity (PSR sort gate)
QVQLVESGGGLVQEGDSLRLSCAASGIIFLWYTLGLYRPAPGKERELVATISWGGGSTYADSVKGRFTISRDNAKNTVYLQMNSLKPEDTAVYYCAADNRYFRGQAYDYWGQGTQVTVSS	low polyreactivity
QVQLVESGGGLVQEGGSLHLICAASGRIFGKYPMGWYRQAPGKEREFVAAIRSSDGNTYYADSVKGRFTISRDNAKNTVYLQMNSLKPDDTAVYYCNAGRVTRRDTFDYWGQGTQVTVSS	high polyreactivity
QVQLVESGGGLVQEGGSLRFSCAASGFTFDHYAMGWNRQAPGKERELVAVITKSGDSTYYADSVKGRFTISRDNAKNTVYLQMNSQKPEDPAVYYCNARRDYDMDWGQGTQVTVSS	high polyreactivity
QVQLVESGGGLVQEGGSLRISCAASGFSYENNAMGRYRQAPGKERERVAGITSGGGSTYYADSVKGRFTISRDNAKNTVYLQMNSLKPEDTAVYYCNKMYTRVGFTFEYWGQGTQVTVSS	low polyreactivity
QVQLVESGGGLVQEGGSLRLICAASGRIFGDYGMGWYRQAPGKERELVAAITDRGGTTYYADSVKGRFTISRDNAKNTVYLQMNSLNPEDTAVYYCNARQSDIFDYDYWGQGTQVTVSS	low polyreactivity
QVQLVESGGGLVQEGGSLRLICAASGRTLNSYDMGWYRQEPGKERELVAAISWSGTNTYYSDSVKGRFTISRDNAKNTVYLQMNCLKPEDTAVYYCNAVTKATRYEYWGQGTQVTVSS	high polyreactivity
QVQLVESGGGLVQEGGSLRLICAASGSIFWLYAMGWYRQAPGKERELVAAIDSGDSTKYADSVKGRFTISRDNAKYTVYLQMNSLKPEDTAVYYCNASRRYHVRAPYDYWGQGTQVTVSS	low polyreactivity
QVQLVESGGGLVQEGGSLRLICEASGFIFYNYAMGWYRQAPGKERELVAAISSSGGRTYYADSVKGRFTISRDNAKNTVYLQMNRLKREDTAVYYCNARVNYKGYDYWGQGTQVTVSS	high polyreactivity
QVQLVESGGGLVQEGGSLRLSCAASGFIFKHYAMGWYRQAPGKEMELVAAISGGGSTNYADSVKGRFTISRDNAKNTVYLQMNSLKPEDSAVYYCAARSRSLGYGYWGQGTHVTVSS	low polyreactivity
QVQLVESGGGLVQEGGSLRLSCAASGFISGFYGMGWYRQAPRKEREFVAAIEFIDGDTYYADSVKGRFTISRDNAKNTVYLQMNSLKPEDTAVYYCAADGSFWQFDYWGQGTQVTVSS	low polyreactivity
QVQLVESGGGLVQEGGSLRLSCAASGFTFAQYALGWYRQAPGNERELVAAISRRGGRTYYADSVTGRFTISRDIAKNTVYLQMTSLKPEDSAVSYCAADGGYQDDYDYWGQGTQVTVSS	high polyreactivity
QVQLVESGGGLVQEGGSLRLSCAASGFTFNNYAMGWYRQAPGKERELVAAISSVGRTYYAYSVKGRFTISRDNAKNTVYLQMISLKPEDTAVYYCNRRWYTHWGQGTQVTVSS	high polyreactivity
QVQLVESGGGLVQEGGSLRLSCAASGIIFLDNAMGWYRQAPGKERELVAAITTGGITYYADSVKGRFTISRDNAKNTVYLQMNSLKPEDTAVYYCATDPVNSGYQRYYYWGQGTQVTVSS	low polyreactivity
QVQLVESGGGLVQEGGSLRLSCAASGLIFRYYGMGWYRQAPGKERELVAAIRWSAGSTYYADSVKGRFTNSRDYAKITVYFQMNSLKPEDTAVYYCAVAIGYVYKPYYYWGQGTQVTVSS	high polyreactivity
QVQLVESGGGLVQEGGSLRLSCAASGLIFSEYAMGWSRQAPGKERELVAAIRSDGGSTYYADSVKGRFTISRDNAKNSVYLQMNSLKPEDTAVYYCNAPYRRSAKFRRYGYDYLGQGTQVTVSS	high polyreactivity
QVQLVESGGGLVQEGGSLRLSCAASGLTFTGNAMGGYRQAPGKEREFVAAIRWSAGSTYYADSVKGRFTISRDNAKNTVYLQMNSLKPEDTAVYYCYAALIVSGHNPNDYWGQGTQVTGSS	low polyreactivity

Sequence	polyreactivity (PSR sort gate)
QVQLVESGGGLVQEGGSLRLSCAASGRIFKYNAMGWYRQAPGKERELVAAISSSGGSTYYADSVKGRFTISRDNAKNTVYLHMNSLKPEDTAVYYCAARYNSRVYRYDYWGQGTQVTVSS	high polyreactivity
QVQLVESGGGLVQEGGSLRLSCAASGRIFSYNTVMGWYIQAPGKERELVAAITFSSASTYYADSVKGRFTISRDNAKNTVYLQMNSLKPEDTAVYYCAAAIRSQSSKYYYWGQGTQVTVSS	low polyreactivity
QVQLVESGGGLVQEGGSLRLSCAASGRTFAVYAMGWYRQAPGKERELVAAITYGGGRTYYADSVKGRFTISRDNAKNTVYLQMNSLKPEDTAVYYCAADYYGTDYDYWGQGTQVTVSS	low polyreactivity
QVQLVESGGGLVQEGGSLRLSCAASGRTFTTYAMGWYRQAPGKERELVAAISDTGGITYYADSVKGRFTISRDTAKNTVYIQMNSLKPEDTAVYYCNAESYGGDYDYWGQGTQVTVSS	low polyreactivity
QVQLVESGGGLVQEGGSLRLSCAASGRTIIQNGMGWYRQAPGKERELVAAISYRGGTTSYADSVKGRFTISRDNAKNTVYLQMNSLKPEDTAVYSCAAVGHTIYATPTYYYWGQGTQVTVSS	high polyreactivity
QVQLVESGGGLVQEGGSLRLSCAASGRTIVSNAMGWYRQAPGKERELVAAIRYGGGRTYYADSVKGRFTISRDNAKNTVYLQMNSLKPEDTAVYYCAKRSVGGTGYYWGQGTQVTVSS	high polyreactivity
QVQLVESGGGLVQEGGSLRLSCAASGRTLYRNAMGWYRQAPGKERELVAAISRSGGRTSYADSVKGRFTISRDNANNTVYLQMNSLIPEDTAVYYCNDVASHEFDYWGEGTQVTVSS	high polyreactivity
QVQLVESGGGLVQEGGSLRLSCAASGSIFGGYALGWYRQAPGKERELVAAITWRGGRTYYADSVKGRFTISRDNAKNTVYLQMNSMKPEDTAVYYCNAVGSYRLYDYWGQGTQVTVSS	high polyreactivity
QVQLVESGGGLVQEGGSLRLSCAASGSIFYNAMGWTRQAPGKERELVAAISSRGASTYYADSVKGRFTISRDNAKNTVYLLMNSLKPEDTAVYYCAKDNRYPYPSGLDYWGQGTQVTVSS	high polyreactivity
QVQLVESGGGLVQEGGSLRLSCAASGSILYYYAMGWYRQAPGKERELVATITRRGGSTYYADSVKGRFTISRDNAKNTVYLQMNSLKPEDTAVYFCAARSRYGELYYWGQGTQVTVSS	high polyreactivity
QVQLVESGGGLVQEGGSLRLSCAASGSTFAANTMGWYRQAPGKERELVAAITVRGGSTYYADSVKGRFSMSRDNAKNTVYLQTNSLKPEDTAVYDCAAERPPYGYLVVGYVSTQYYYWGQGTQVTVSS	low polyreactivity
QVQLVESGGGLVQEGGSLRLSCAASGSTFTPYAMGWYRQAPGKERELVAGITGNGGSTRYADSVKGRFTISRDNEKNTVYLQMKSLKTEDSAVYYCAARWTRQRYRTSYYAWGQGTQVTVSS	high polyreactivity
QVQLVESGGGLVQEGGSLRLSCAASGSTFTYNDMGRYRQAPGKERELVAAITDSDGITYYADSVKGRFTISRDNAKNTVYLQMHSLKPEDTAVSYCAAYYYGSVAQDREYWGQGTQVTVSS	high polyreactivity
QVQLVESGGGLVQEGGSLRLSCAASGSTFYSNAMGWYRQARGKEREFLAAISWSGGSTYYADSVKGRFTISRDNAKNTVYFQMNSLKPEDTAVYYCAKKPYYYAFCGYGYWGQGSQVTVSS	high polyreactivity
QVQLVESGGGLVQEGGSLRLSCAASGYIFWSNTMGWYRQAPGKERELVAAISQSTASTYYADSVKGRFTISRDNAKNTVYLQMNSLKPDDTAVYYCAADGWSRSWGYWVHYGYWGQGTQVTVSS	low polyreactivity
QVQLVESGGGLVQEGGSLRLSCAASVRIFSDYAMGWYIQAPGKERELVATITSGDSTNYADSVKGRFTISRDNAKNTVYLQMNSLKPEDNAVYYFNADRFADYDYWGQGTQVTVSS	low polyreactivity
